Where “and” joins values, the source holds several entries; their conditions need not be identical. Equal entries are not always repeated. Where two headings read alike, the source gives them in different places.
Legend:
native MS [1] = target: the molecule itself; test: native MS
native MS [2] = target: the molecule itself; test: native MS; remark: listed apart in the source

Protein | stoichiometry N (native MS [1]) | stoichiometry N (native MS [2])
Pyruvate kinase type III (Oryctolagus caniculus) (enzyme) not shown | 2 and 4 | 
Enolase 1 (S. cerevisiae) (enzyme, UniProt P00924 2-437, looked up) AVSKVYARSVYDSRGNPTVEVELTTEKGVFRSIVPSGASTGVHEALEMRDGDKSKWMGKGVLHAVKNVNDVIAPAFVKANIDVKDQKAVDDFLISLDGTANKSKLGANAILGVSLAASRAAAAEKNVPLYKHLADLSKSKTSPYVLPVPFLNVLNGGSHAGGALALQEFMIAPTGAKTFAEALRIGSEVYHNLKSLTKKRYGASAGNVGDEGGVAPNIQTAEEALDLIVDAIKAAGHDGKVKIGLDCASSEFFKDGKYDLDFKNPNSDKSKWLTGPQLADLYHSLMKRYPIVSIEDPFAEDDWEAWSHFFKTAGIQIVADDLTVTNPKRIATAIEKKAADALLLKVNQIGTLSESIKAAQDSFAAGWGVMVSHRSGETEDTFIADLVVGLRTGQIKTGAPARSERLAKLNQLLRIEEELGDNAVFAGENFHHGDKL |  | 2
